Data published in US20240181040A1.
Where two headings read alike, the source gives them in different places.

How the values were obtained:
[1] = target: BG505 SOSIP.664 envelope trimer protein (HIV-1 clade A, BG505); assay: BLI, antibody on anti-human Fc biosensor, Env in solution, global fit
[2] = target: BG505 SOSIP.664 envelope trimer protein (HIV-1 clade A, BG505); assay: BLI, antibody on anti-human Fc biosensor, Env protein as analyte
[3] = target: BG505 T332N gp160 on pseudo-typed virus (HIV-1 clade A, BG505)
[4] = target: clade C HIV-1 1086.c ENV SOSIP trimer (HIV-1 clade C, 1086.c); assay: BLI, antibody on anti-human Fc biosensor, Env in solution, global fit
[5] = target: clade C HIV-1 1086.c ENV SOSIP trimer (HIV-1 clade C, 1086.c); assay: BLI, antibody on anti-human Fc biosensor, Env protein as analyte
[6] = target: 1086.c gp160 wt on pseudo-typed virus (HIV-1 clade C, 1086.c)
[7] = target: clade C HIV-1 1086.c ENV SOSIP trimer (HIV-1 clade C, 1086.c); assay: BLI, antibody on anti-human Fc biosensor, Env protein as analyte; text paragraph 65 prints 0.12 nM
[8] = target: 1086.c gp160 wt on pseudo-typed virus (HIV-1 clade C, 1086.c); assay: cell-based or functional assay
[9] = target: HIV-1 Env 1086.C D7gp120 envelope glycoprotein (HIV-1 clade C, 1086.c); assay: BLI, antibody on anti-human Fc biosensor, Env protein as analyte
[10] = target: HIV-1 Env 1086.C gp140C envelope glycoprotein (HIV-1 clade C, 1086.c); assay: as above
[11] = target: clade C HIV-1 1086.c ENV SOSIP trimer (HIV-1 clade C, 1086.c); assay: as above; remark: listed apart in the source
[12] = target: HIV-1 Env 1086.C D7gp120 envelope glycoprotein (HIV-1 clade C, 1086.c); assay: BLI, antibody on anti-human Fc biosensor, Env in solution, global fit
[13] = target: HIV-1 Env 1086.C gp140C envelope glycoprotein (HIV-1 clade C, 1086.c); assay: as above
[14] = target: clade C HIV-1 1086.c ENV SOSIP trimer (HIV-1 clade C, 1086.c); assay: as above; remark: listed apart in the source
[15] = target: clade C HIV-1 1086.c ENV SOSIP trimer (HIV-1 clade C, 1086.c); assay: BLI, antibody on anti-human Fc biosensor, Env protein as analyte; the sheet has this in the 1086.C SOSIP rows, text paragraph 67 gives this KD for BG505 SOSIP.664
[16] = target: BG505 SOSIP.664 envelope trimer protein (HIV-1 clade A, BG505); assay: BLI, antibody on anti-human Fc biosensor, Env protein as analyte; text paragraph 65 prints <1.03x10^-3 nM

| Substance | Kd [1] [pM] | koff [2] [s⁻¹] | kon [2] [M⁻¹ s⁻¹] | neutralisation IC50, pseudo-typed virus on TZM-bl cells [3] [µg/mL] | Kd [4] [nM] | koff [5] [s⁻¹] | kon [5] [M⁻¹ s⁻¹] | neutralisation IC50, pseudo-typed virus on TZM-bl cells [6] [µg/mL] | also measured |
| --- | --- | --- | --- | --- | --- | --- | --- | --- | --- |
| PG16 (antibody) | 7350 | 0.000358 | 48600 | 0.011 | – | – | – | – | – |
| PGT145 (antibody) | 2570 | 0.000482 | 187000 | < 0.001 | 1.22 | 0.00194 | 1.59e+06 | – | – |
| CH106 (antibody) | 3.51 | < 1e-07 | 13700 | > 4 | 5.33 | 6.64e-05 | 12500 | 3.63 | – |
| IgG1 b12 (antibody) | – | – | – | – | 0.12 | 9.85e-05 | 811000 | > 4 | Kd [7]: 0.122 nM |
| 10-1074 (antibody) | < 1 | < 1e-07 | 48600 | 0.003 | – | – | – | – | – |
| PGT126 (antibody) | < 1 | < 1e-07 | 268000 | 0.006 | 0.37 | 0.000462 | 1.26e+06 | – | – |
| PG09 (antibody) | 2100 | 0.0001 | 47600 | 0.02 | 12.4 | 0.000475 | 38200 | – | – |
| 2G12 (antibody) | < 1 | 4.83e-08 | 254000 | 0.29 | 0.07 | 5.61e-05 | 821000 | – | – |
| PGT121 (antibody) | 150 | 5.35e-06 | 34900 | 0.003 | 0.17 | 7.93e-05 | 460000 | – | neutralization of pseudotyped virus in TZM-bl cells, IC50 [8]: < 1 ng/mL |
| HJ16 (antibody) | 1290 | 0.000128 | 99500 | > 4 | 3.59 | 0.000151 | 42200 | 3.82 | – |
| 3869 (antibody) | 2 | 4.83e-08 | 24200 | – | < 0.001 | < 1e-07 | 2.56e+06 | > 4 | – |
| CD4-IgG2 (Fc fusion) | – | – | – | > 4 | – | – | – | – | neutralization of pseudotyped virus in TZM-bl cells, IC50 [8]: 1720 ng/mL |
| VRC-CH31 (antibody) | – | – | – | 0.011 | – | – | – | 2.16 | – |
| CH59 (antibody) | – | – | – | – | – | – | – | > 4 | koff [9]: 0.000105 s⁻¹; kon [9]: 57900 M⁻¹ s⁻¹; koff [10]: < 1e-07 s⁻¹; kon [10]: 10200 M⁻¹ s⁻¹; koff [11]: < 1e-07 s⁻¹; kon [11]: 63700 M⁻¹ s⁻¹; Kd [12]: 1.81 nM; Kd [13]: 0.0012 nM; Kd [14]: < 1 pM |
| VRC01 (antibody) | 2.1 | < 1e-07 | 23200 | 0.06 | < 0.001 | < 1e-07 | 72800 | 0.49 | – |
| F105 (antibody) | 12.9 | < 1e-07 | 3750 | – | 0.00172 | < 1e-07 | 30400 | – | – |
| 35O22 (antibody) | 1.3 | – | – | – | – | – | – | > 4 | Kd [15]: 1.3 pM |
| PGT128 (antibody) | < 1 | < 1e-07 | 78600 | 0.003 | 0.35 | 0.000414 | 1.18e+06 | – | – |
| 3BNC117 (antibody) | 1.08 | < 1e-07 | 44700 | 0.007 | 0.3 | 3.92e-05 | 132000 | 0.21 | – |
| N6 (antibody) | 1.14 | < 1e-07 | 42200 | 0.031 | < 0.001 | < 1e-07 | 52300 | 0.023 | – |
| CH58 (antibody) | – | – | – | – | < 0.001 | – | 680000 | – | koff [9]: 0.0012 s⁻¹; kon [9]: 129000 M⁻¹ s⁻¹; koff [10]: 1.25e-05 s⁻¹; kon [10]: 56800 M⁻¹ s⁻¹; koff [11]: < 1e-07 s⁻¹; kon [11]: 680000 M⁻¹ s⁻¹; Kd [12]: 9.31 nM; Kd [13]: 0.22 nM; Kd [14]: < 1.03 pM |
| VRC03 (antibody) | < 1.03 | < 1e-07 | 78600 | 2.83 | – | – | – | – | Kd [16]: < 1 pM |
